± gives the standard deviation of the averaged measurements.

Data set [1] can be described thus: PET hydrolysis, aromatic products released after 48 h (umol product/mg enzyme); higher = more PET depolymerization activity. As to the method:
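HTP-purified, SUMO-cleaved, tagless PET hydrolase candidates (5 ug, 1.43 mg/g PET) were incubated 48 h without shaking with 3.5 mg amorphous PET film (aFilm) or crystalline PET powder (cryPow) in 0.5 mL buffer: NaCitrate pH 4.5/5.5, NaPhosphate pH 6.5/7.5, glycine pH 8.5. Incubation was at 40 or 60 C. Aromatic products (TPA, MHET, BHET) in the supernatant were quantified by UV absorbance at 260/280 nm relative to buffer blanks and expressed per mg enzyme. LCC-ICCG was the positive control on every plate.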

The nature of data set [2]: melting temperature (DSF); higher = more thermostable. As to the method: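 Candidate PET hydrolases were expressed in E. coli C41(DE3) in 2 mL autoinduction cultures in 24-deep-well plates, Ni-bead purified and released by SUMO protease cleavage on an OT-2 robot. Yield per well was measured by BCA; values below 25 ug (0.1 mg/mL) are below the detection threshold. Melting temperature was measured by differential scanning fluorimetry with Sypro Orange, ramping from 25 C at 0.3 C/step.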

Data set [3] is described as follows: purified protein yield per well (BCA); higher = higher soluble expression. The gist of the method: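 Purified protein yield per well is reported, as measured by the Pierce Rapid Gold BCA kit. The enzymes came from E. coli C41(DE3) autoinduction cultures of 2 mL with 100 µg/mL kanamycin, held at 37 °C for 2 h and 18 °C for 40 h, then lysed and purified on Ni-charged magnetic beads with SUMO protease release. The detection threshold is 25 ug (0.1 mg/mL), and lower values are under it.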

[4] abbreviates: substrate: cryPow, 40 °C, pH 4.5.
[5] abbreviates: substrate: cryPow, 40 °C, pH 5.5.
The mark [6] stands for this setting: substrate: cryPow, 40 °C, pH 6.5.
[7] abbreviates: substrate: cryPow, 40 °C, pH 7.5.
The mark [8] stands for this setting: substrate: cryPow, 60 °C, pH 4.5.
Setting [9] is: substrate: cryPow, 60 °C, pH 5.5.
The mark [10] stands for this setting: substrate: cryPow, 60 °C, pH 6.5.
The mark [11] stands for this setting: substrate: cryPow, 60 °C, pH 7.5.

“ADNPYQRGPDPTPQSISATTGPFATASVTVPRQGNFGGGVIYYPTDTSQGTFGAVAISPGLNGTWPGIAWLGPRLSSQGFVVFGIDTLGLNDSTASRGSQLLAALDYLTQTSSVRTRVDASRLAVAGHSMGGGGAFEAVLRRPTLKASIPNAPFFPGSAANVRVPTLITAMQNDSLVGQNRNAYNGIPAGVEKAYIELAGAGHNQIGQPTTAIARNWIPWLKIFVDNDARYHQFFCPTTNMSGLSQYLNTCPLTSATPPTSSPSAGPTTPGPTGPPPGGACAATYQTVNTWSGGYQGEMTVRAGNSAINGWTVRWTMGGGQISQVWNGTLVTGSGAAAVRNAPYNGALAAGATTTFGFISSGTPSATSLTCATP [ESM064]”: the PET hydrolysis was < 3 in data set [1] (setting [4]), 11 in data set [1] (setting [5]), 10 in data set [1] (setting [6]) and 74 in data set [1] (setting [7]). This sequence displayed a melting temperature in data set [2] of 63.1 C. Also, in data set [3], the “purified protein yield per well” value is 164 µg.

As for “ADNPYQRGPDPTRTSVTAVNGPFANTSVSVPTGYGFNGGRIYYPTDTSQGTFGAIAISPGYTALFSAELAWMGPWLASHGFVVIGIETNSRNDFDTARGTQLLAALDYLTQQSPVRDRVDPNRLAVAGHSMGGGGALSAATRRPSLKAVVGIAPYSPSSNLANDRVPTMIFAGQADTVVTPSYATGLYNSLPATTESVYVEVAGADHGFMVGRSNPVMVRTMLPFVKMFIDNDTRYSQFLCPLLDSSGVVTYRSTCPLLPSTPTPTDPPTPTDPPTVPPGSANEIVGTQSGRCVDVPNASRTNGTRVQLYGCNKQTNQAWTYTSSKQLQVYGNMCLDAAGTGNGAAVQIYSCHNQTNQQWNVNSNGTISNVQSGRCLDAWSTANGAQIQLYDCHGQTNQQFRLAALAG [ESM069]”, the PET hydrolysis in data set [1] (substrate: aFilm, 40 °C, pH 4.5) is < 3; in data set [1] (substrate: aFilm, 40 °C, pH 5.5), 4; in data set [1] (substrate: aFilm, 40 °C, pH 6.5), < 3; in data set [1] (substrate: aFilm, 40 °C, pH 7.5), < 3; in data set [1] (substrate: aFilm, 60 °C, pH 4.5), < 3; in data set [1] (substrate: aFilm, 60 °C, pH 5.5), < 3. Besides, the PET hydrolysis in data set [1] (substrate: aFilm, 60 °C, pH 6.5) was < 3; in data set [1] (substrate: aFilm, 60 °C, pH 7.5) it was < 3; in data set [1] (setting [4]), 10.5 ± 2.1; in data set [1] (setting [5]) it was 29 ± 2.8; in data set [1] (setting [6]), 42; in data set [1] (setting [7]), 17 ± 1.4. For the same sequence, the PET hydrolysis was < 3 in data set [1] (setting [8]), 4.5 ± 0.71 in data set [1] (setting [9]), 4 in data set [1] (setting [10]) and < 3 in data set [1] (setting [11]). Besides, the melting temperature in data set [2] is 63.4 C. Moreover, in data set [3], the “purified protein yield per well” value came out at 213 µg.

For the sequence “ADNPYQRGPDPTVASVAATRGTFATAQLTVPAGNGFGGGYIYYPTDTSRGTYGAVAIVPGYSALFANEEAWMGPWLASFGFVVIGVETITRNDGADARATQLLAALDYLTQRSQVRDRVDATRLAVMGHSAGGAGTILASERRPSLKAAVGLAPGTPGSLSLATNHVPMMIIGGQTDPTVTPSYLNNLYATMPAATPSDFVQIAGADHLFFTRANNTEMKVLIPWLKIFLDNDTRYTQFLCPSLADPQGISLYRSKCPYLPPGTTSPSPSASSTLSPSPSVSPTASPSPSVSLTPSPSNPATGCAATYRTVNSWPGGFQGEVTVSAGGAPVDGWTVGWTLGSGQSITQLWNGTLTTSGSTVTVRNPAYGGSIPAGGSVVFGFLGTGTPSVPALTCTSP [ESM031]”, the PET hydrolysis in data set [1] (setting [4]), in data set [1] (setting [5]), in data set [1] (setting [6]), in data set [1] (setting [7]), in data set [1] (setting [8]) and in data set [1] (setting [9]) was < 3 in each case. In addition, the PET hydrolysis in data set [1] (setting [10]) and in data set [1] (setting [11]) was < 3 in each case. The sequence further displayed a melting temperature in data set [2] of 47.8 C. Also, the “purified protein yield per well” value in data set [3] turned out to be 66.9 µg.

“AQTSQVVTANPHQRGPDPTPETVRAPQGTFAFSTYSVPASVTGFGQGTIYYPDDTTQGTFAGVAISPGYTGPEASVAWLGPRLASRGFVVITITTNSRYDQPTSRGKQLLAALDYLTKQSPTEVRQRLDATRLGVMGHSMGGGGALYAAYKRPSLKAAVPLAPWNLIKNWSGIRVPTLVVAGTADKTASAGAHSLPFYSSMTGARERAFADVTGADHLTFVREDPVIGALAVSWLKRFLDDDTRYAPFITEPVGLSRFLCSCPYAG [DP007]”: the PET hydrolysis is < 3 in data set [1] (setting [5]); 8 in data set [1] (setting [6]); 16 in data set [1] (setting [7]); 16 in data set [1] (substrate: cryPow, 40 °C, pH 8.5). For the same sequence, the melting temperature in data set [2] was determined as 51.7 C. For the same sequence, the “purified protein yield per well” value in data set [3] is 46 µg.

Consider “ASPYERGPDPTDSILEASRGPFATSQLSVSSLSVSGFGGGTVYYPTDTSQGTFGAIAISPGYTARWSSLAWLGPRIASHGFVVIGIETNTIYDQPASRGRQLLAALDYLTSSSPSTVRSRIDASRLAVAGHSMGGGGTLEAANDRPSLQAAVPLAPWNLTKIWSGVRVPTMIIGGEADTVAPVASHSEPFYQSIPSSVEKAYLELNNASHFFPQTTNTTMAKSMVAWLKRFVDDDTRYDQFLCPAPRGLAIQEYRDTCPIS [TEP144]”, for which the PET hydrolysis in data set [1] (setting [4]), in data set [1] (setting [5]), in data set [1] (setting [6]) and in data set [1] (setting [7]) was < 3 throughout. The same sequence yielded a melting temperature in data set [2] of 46.6 C. Further, the “purified protein yield per well” value in data set [3] stood at 32.6 µg.

Turning to “AENPYQRGPDPTLAALAASAGPYPIMETVVGSAEVTNFGGASIYYPAGTADGTFGGVAVTPGFLGPRSTMEWVARRVASHGFVVINIDTLERNDTPPLRARQMLAALDYLTGASAVRDRVDPTRLAVMGHSMGGGGSLQASRQRPQLKAAVPLTPWSNDKDFSADVVPTLIIGAELDDTAPVAEHAEPFFESIAAARKAYLELNDAEHRAPIRTNETIGTYSVAWLKRFVDDDTRYEQFLCPPPAPSAAIEEFRGTCPSS [TEP106]”, the PET hydrolysis in data set [1] (setting [4]), in data set [1] (setting [5]), in data set [1] (setting [6]), in data set [1] (setting [7]), in data set [1] (setting [8]) and in data set [1] (setting [9]) was < 3 each time. Also, the PET hydrolysis in data set [1] (setting [10]) and in data set [1] (setting [11]) was < 3 in each case. The sequence also displayed a melting temperature in data set [2] of 41.5 C. For the same sequence, the “purified protein yield per well” value in data set [3] worked out at 87.7 µg.

The record behind these values is the supplement of paper PMC12455559.
